Results on one molecule are retold here after publication PMC3150801 (Nature, 2011).

For the assay, the target named is GST hLRH-1 ligand binding domain (amino acid residues, 185-541) (human, UniProt O00482 185-541). The assay is described as follows: pull-down.
Chain of GST hLRH-1 ligand binding domain (amino acid residues, 185-541) (O00482 185-541): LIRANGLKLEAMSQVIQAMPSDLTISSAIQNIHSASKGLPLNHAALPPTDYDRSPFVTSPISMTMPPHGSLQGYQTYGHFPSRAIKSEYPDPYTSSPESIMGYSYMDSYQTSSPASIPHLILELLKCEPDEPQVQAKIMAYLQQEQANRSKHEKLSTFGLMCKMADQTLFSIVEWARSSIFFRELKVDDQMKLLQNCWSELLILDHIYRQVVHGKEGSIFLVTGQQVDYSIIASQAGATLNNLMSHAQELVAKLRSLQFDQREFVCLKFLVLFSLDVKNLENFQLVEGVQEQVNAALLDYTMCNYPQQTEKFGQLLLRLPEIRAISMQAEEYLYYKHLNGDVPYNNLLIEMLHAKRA

B1: Full-length [35S]methionine-labeled SRC-3 (natural protein)
chain: not shown
modifications: [35S]methionine label
For the molecule B1, the “fold increase of binding with DLPC or DUPC over basal” value is about 3 fold.
